Results published in patent publication US20250177505A1, “CANCER VACCINE COMPRISING EPITOPE OF C-MET AND EPITOPE OF HIF1ALPHA, AND USE THEREOF” (KOREA UNIVERSITY RESEARCH AND BUSINESS FOUNDATION, priority 2022, published 2025).
“Also recorded” adds a separate entry of the source.

What was measured:
[1] = system: bone marrow monocytes (BMMs); experiment: Osteoclastogenesis analysis in bone marrow monocytes; assay type: cell-based, C3(1)-Tag mice; conditions: BMM with M-CSF 30 ng/mL, RANKL 100 ng/mL, IFN-γ 50, 100 ng/mL; vs positive control
Procedure: Primary mouse bone marrow monocytes (BMMs) were isolated from the hind limb bones (two femurs and two tibiae) of 4 to 8 week-old C3(1)-Tag mice. The mouse BMMs were flushed into a 15 ml tube via 8 ml of a serum-free 2 mM EDTA α-MEM medium. A Lymphocyte Separation Medium (LSM; MP Biomedicals; Catalog No. 50494) was dispensed into a new tube, 8 ml of the flushed BMMs were gently added thereon and centrifuged at 1600 rpm for 20 minutes at room temperature. The isolated BMMs were inoculated at 3×10^5 cells/well in a 48-well plate with 0.5 mL of a medium per well and incubated in α-MEM containing 10% FBS and 1% antibiotics.
BMMs in a negative control group were treated with M-CSF (30 ng/mL), BMMs in a positive control group were treated with M-CSF and RANKL (100 ng/mL), and BMMs in an experimental group were stimulated by treatment with M-CSF, RANKL, and IFN-γ(50, 100 ng/mL). On days 1, 3, 5, and 7 of culture, the medium was replaced, and each experimental group was treated with M-CSF, RANKL, and IFN-γ. After 9 days of culture, staining was performed using a TRAP staining kit (KT-008, KAMIYA biomedical company, Seattle, WA, USA) after fixing the cells with 10% formalin. For each well, TRAP-positive (TRAP^+) multinucleated cells (TRAP^+ MNC) were counted. All the experiments were independently repeated three times.

M6-bone cells = experiment: Western blot of IFN-γ-treated cells; assay type: cell-based, mouse; conditions: 100 ng/ml IFN-γ, 18 hours
Procedure: M6 and M6-bone cells were stimulated with 100 ng/ml recombinant mouse IFN-γ and cultured in a medium containing 1% FBS for 18 hours. The cells were lysed in a buffered mixture of a PRO-PREPTM protein extraction solution (iNtRON Biotechnology, 17081) and a phosphatase inhibitor cocktail (Gen DEPOT, p3200-001). Protein concentration was measured using the Bradford assay (Bio-rad, 500-0006, Hercules, CA, USA). 30 μg of the protein was separated by SDS-polyacrylamide gel electrophoresis and transferred to a PVDF membrane (10600023), and then the membrane was blocked with Tris-buffered saline containing 0.05% Tween 20 and 5% non-fat milk powder for 1 hour. The PVDF membrane was incubated overnight at 4° C. with primary antibodies. HIF1α (NB100-105, Novusbio), c-MET, Akt (Cat #9272), and p-Akt (Cat #9271) antibodies were purchased from Cell Signaling Technology (Beverly, MA, USA), and β-actin (Cat #A5316) was purchased from Sigma (Saint Louis, MO, USA). Subsequently, a horseradish peroxidase-conjugated secondary antibody was cultured at room temperature for 1 hour. Immunoreactive bands were detected with a chemiluminescent reagent (Cat #RPN2106).

B1: IFN-γ: recombinant mouse IFN-γ, key cytokine of T-helper type 1 immunity (protein, UniProt P01580 23-155, looked up)
Interferon gamma: HGTVIESLESLNNYFNSSGIDVEEKSLFLDIWRNWQKDGDMKILQSQIISFYLRLFEVLKDNQAISNNISVIESHLITTFFSNSKAKKDAFMSIAKFEVNNPQVQRQAFNELIRVVHQLLPESSLRKRKRSRC
osteoclastogenesis in vitro [1]: completely inhibited; also recorded: inhibits | Expression of c-MET (M6-bone cells): decreased | Expression of p-Akt (M6-bone cells): decreased
